Where a chain is given by its changes, count along the chain named. Names may count otherwise. One block for each binder: values may come before it.
Legend:
recombinant laminin 511 = target: T1, recombinant laminin 511 (UniProt O15230 36-3695; P07942 22-1786; P11047 34-1609); test: flow cytometry with pan-laminin antibody on CHO cells transfected with human MCAM
T1 construct: also called laminin 10 (α5β1γ1)

laminin α-4 = laminin α-4 (UniProt Q16363 25-1823); test: FACS on mammalian cells displaying the mutant
Source text: Twenty point mutants based on the structure information and shotgun mutagenesis information were designed and generated.

Chain of laminin α-4 (Q16363 25-1823): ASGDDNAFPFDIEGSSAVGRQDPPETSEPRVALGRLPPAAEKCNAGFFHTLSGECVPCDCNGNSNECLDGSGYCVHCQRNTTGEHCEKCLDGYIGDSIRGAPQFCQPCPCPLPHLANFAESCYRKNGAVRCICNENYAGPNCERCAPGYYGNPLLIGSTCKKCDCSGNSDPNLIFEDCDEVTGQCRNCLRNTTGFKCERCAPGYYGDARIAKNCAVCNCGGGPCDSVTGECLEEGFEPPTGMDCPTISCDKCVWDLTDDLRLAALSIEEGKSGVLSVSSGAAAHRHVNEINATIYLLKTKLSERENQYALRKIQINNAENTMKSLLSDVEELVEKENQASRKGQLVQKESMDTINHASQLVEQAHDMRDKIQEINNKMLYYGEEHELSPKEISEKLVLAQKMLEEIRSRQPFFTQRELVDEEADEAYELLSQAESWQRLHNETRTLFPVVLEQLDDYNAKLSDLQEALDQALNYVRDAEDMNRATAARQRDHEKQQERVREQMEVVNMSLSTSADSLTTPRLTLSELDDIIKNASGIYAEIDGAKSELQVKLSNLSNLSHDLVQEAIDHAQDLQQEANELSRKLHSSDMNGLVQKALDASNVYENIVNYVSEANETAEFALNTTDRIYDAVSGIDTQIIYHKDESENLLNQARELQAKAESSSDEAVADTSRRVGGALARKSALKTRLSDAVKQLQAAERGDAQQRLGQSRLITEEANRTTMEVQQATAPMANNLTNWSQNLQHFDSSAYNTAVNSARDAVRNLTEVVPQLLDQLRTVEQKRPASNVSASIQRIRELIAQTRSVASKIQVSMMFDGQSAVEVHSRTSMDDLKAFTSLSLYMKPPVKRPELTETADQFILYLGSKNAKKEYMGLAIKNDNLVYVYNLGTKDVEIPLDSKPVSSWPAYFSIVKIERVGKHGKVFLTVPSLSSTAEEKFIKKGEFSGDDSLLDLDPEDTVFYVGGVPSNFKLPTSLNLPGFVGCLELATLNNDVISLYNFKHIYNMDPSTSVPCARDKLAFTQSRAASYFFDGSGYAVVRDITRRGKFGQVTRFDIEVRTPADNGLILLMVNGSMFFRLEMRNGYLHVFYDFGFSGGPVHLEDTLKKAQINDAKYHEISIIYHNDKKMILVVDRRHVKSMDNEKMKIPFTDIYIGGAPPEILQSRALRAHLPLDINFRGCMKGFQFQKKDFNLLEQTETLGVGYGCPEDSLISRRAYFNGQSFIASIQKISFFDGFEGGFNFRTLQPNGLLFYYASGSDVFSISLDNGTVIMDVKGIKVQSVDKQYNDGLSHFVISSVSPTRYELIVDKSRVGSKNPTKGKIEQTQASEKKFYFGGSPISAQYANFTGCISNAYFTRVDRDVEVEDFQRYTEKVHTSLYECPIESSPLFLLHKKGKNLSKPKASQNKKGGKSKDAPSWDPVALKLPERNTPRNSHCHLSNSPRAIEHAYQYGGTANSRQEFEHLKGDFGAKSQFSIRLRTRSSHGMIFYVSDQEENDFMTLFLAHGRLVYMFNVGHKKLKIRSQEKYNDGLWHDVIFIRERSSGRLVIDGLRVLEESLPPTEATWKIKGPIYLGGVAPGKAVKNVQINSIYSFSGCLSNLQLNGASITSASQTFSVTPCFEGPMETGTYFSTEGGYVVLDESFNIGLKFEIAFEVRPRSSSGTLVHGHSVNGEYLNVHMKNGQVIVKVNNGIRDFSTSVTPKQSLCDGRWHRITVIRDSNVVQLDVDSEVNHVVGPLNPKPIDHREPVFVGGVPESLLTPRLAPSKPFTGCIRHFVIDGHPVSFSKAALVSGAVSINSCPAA

binding result (recombinant laminin 511): no binding (tested: 10 µg/ml)
B1: human MCAM, full length, expressed on transfected cells (receptor)
chain: VPGEAEQPAPELVEVEVGSTALLKCGLSQSQGNLSHVDWFSVHKEKRTLIFRVRQGQGQSEPGEYEQRLSLQDRGATLALTQVTPQDERIFLCQGKRPRSQEYRIQLRVYKAPEEPNIQVNPLGIPVNSKEPEEVATCVGRNGYPIPQVIWYKNGRPLKEEKNRVHIQSSQTVESSGLYTLQSILKAQLVKEDKDAQFYCELNYRLPSGNHMKESREVTVPVFYPTEKVWLEVEPVGMLKEGDRVEIRCLADGNPPPHFSISKQNPSTREAEEETTNDNGVLVLEPARKEHSGRYECQAWNLDTMISLLSEPQELLVNYVSDVRVSPAAPERQEGSSLTLTCEAESSQDLEFQWLREETDQVLERGPVLQLHDLKREAGGGYRCVASVPSIPGLNRTQLVKLAIFGPPWMAFKERKVWVKENMVLNLSCEASGHPRPTISWNVNGTASEQDQDPQRVLSTLNVLVTPELLETGVECTASNDLGKNTSILFLELVNLTTLTPDSNTTTGLSTSTASPHTRANSTSTERKLPEPESRGVVIVAVIVCILVLAVLGAVLYFLYKKGKLPCRRSGKQEITLPPSRKTELVVEVKSDKLPEEMGLLQGSSGDKRAPGDQGEKYIDLRH
notes: also called CD146; MUC18

binding result (laminin α-4): no binding
B2: human MCAM Y318A single mutant displayed on mammalian cells (receptor)
chain: B1 chain with Y295A
notes: also called Y318A mutant
